In patent US20240228648A1 (JIANGSU KANION PHARMACEUTICAL, published 2024):

Legend:
[1] = target: T1, CD38 on the surface of Daudi cells (human, UniProt P28907 1-300); test: cell-based or functional assay
[2] = target: T1, CD38 on the surface of Daudi cells; test: flow cytometry on Daudi cells, anti-human IgG-Alexa647, fit in GraphPad Prism
Method: Daudi cells were washed twice with PBS and incubated for 1 hour on ice with serially diluted antibodies in FACS buffer (PBS containing 2% FBS) as indicated in table 2. Cells were washed three times with PBS and incubated with 1:200 diluted anti-human IgG-Alexa647 in FACS buffer for 30 min at 4° C. in darkness. After three times wash with PBS, cells were analyzed using flowcytometer.

[3] = target: T2, recombinant biotinylated CD38-avi protein (extracellular domain of human CD38) (human, UniProt P28907 43-300, biotinylated (avi tag)); test: capture ELISA: antibody captured by anti-human Fc, biotinylated CD38-avi 0.5 ug/ml, fit in GraphPad Prism
T2 construct: Bought from ACRO biosystems; also called CD38 recombinant protein; not shown: avi tag
Method: After 6 washes, plate was incubated with 1:1000 diluted streptavidin-HRP (BD Bioscience) in PBS™ at RT for 30 min.

CDC IC50 on Daudi cells (ratio of live P1 cells, 7AAD flow cytometry) [1] [nM] | maximal ADCC activity on Daudi cells relative to Darzalex (Jurkat effector, luciferase) [1] [fold] | Kd [2] [nM] | Kd [3] [nM] | ADCC IC50 on Daudi cells relative to Darzalex (Jurkat effector, luciferase) [1] [fold] | Binder
9.8 | 1.4 | 3.1 | 0.082 |  | IgG418 full antibody (antibody, V domains shown, also called IgG418 WT; IgG418-WT) VH: QVQLQQSGPGLVKPSQTLSLTCAISGGSVSSNSAAWNWIRQSPSRGLEWLGRTYYRSKWYNDYAVSVKSRITINPDTSKNQFSLQLNSVTPEDTAVYYCARDALAAAGTYGYYYYYGMDVWGQGTMVTVSS VL: QSALTQPASVSGSPGQSITISCTGTSSDVGGYNYVSWYQQHPGKAPKLVIYEGTQRPSGVSSRFSGSKSGNTASLTISGLQAEDEADYYCSSYTSSSFYVFGTGTKLTVLG
 | 1.6 |  |  | ~10 | afucosylated IgG418 (antibody, V domains shown, afucosylated glycan (produced in FUT8 knockout CHO-K1 cells)) VH: QVQLQQSGPGLVKPSQTLSLTCAISGGSVSSNSAAWNWIRQSPSRGLEWLGRTYYRSKWYNDYAVSVKSRITINPDTSKNQFSLQLNSVTPEDTAVYYCARDALAAAGTYGYYYYYGMDVWGQGTMVTVSS VL: QSALTQPASVSGSPGQSITISCTGTSSDVGGYNYVSWYQQHPGKAPKLVIYEGTQRPSGVSSRFSGSKSGNTASLTISGLQAEDEADYYCSSYTSSSFYVFGTGTKLTVLG
